Test results as given in the nanobody polyreactivity screen of Harvey et al. (2022).

test: yeast display, Sf9 membrane polyspecificity reagent, FACS + sequencing; frameworks hold sequencing errors
Procedure, shortened: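 Nanobodies came from a synthetic yeast display library in Saccharomyces cerevisiae BJ5465, induced with galactose for 36–48 hours and stained for 1 hour at 4 °C with 10% biotinylated, detergent-solubilized Sf9 membrane reagent. Cells were enriched on streptavidin microbeads and then FACS-sorted, with low and high (top ~1%) gates set on anti-HA fluorescence for expression and streptavidin fluorescence for reagent binding. Each polyreactivity label reflects the gate a clone came from. Genes were amplified by colony PCR, sequenced by MiSeq 2 × 250 and filtered by CDR length.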

Sequence	polyreactivity (PSR sort gate)
QFQLVESGGGLVQAGGSLRISCAASGSIFLFYAMGWYRKAPGKERELVAAIDQSGGSTYYADSVKGRFTFSRDNAKKTVYFQMNSLKPEDTAVYYSAAVHSLYWLGDDTYGYDYWGQGTQVTVSS	low polyreactivity
QVQLVESGGGLVQAGGSLRVSCAASGRTFYANVRGWYRQAPGKERELGAAIAASGGSTYYADSVKGRVTISRDNAKNTVYLQMNRLKPEDTAGYYCYKVVRWPGTYLRYVISDLDYWGQGSQVTVSS	low polyreactivity
QVQLVESGGGLVQAGGSLRLSCAASGRTFMRNAMGLYRQAPGKERELVAAISRSGGSTYYADSVKGRFTISRDNAKNTVYLQMNSLKPEDTAVYYCAADDYGGYYYWGQGTQVTVSS	high polyreactivity
QVQLVESGGGLVQAGGSLRLSCAASGRTLVDYAMGWYRQAPGKERELVAAINFSGGSTNYADSVKGRFTISRDNAKNTVYLQMNSLKPEDTAVYYCNKEGRPDRDYWGQGTQVTVSS	low polyreactivity
QVQLVESGGGLVQAGGSLRLSCAASGRIIRGYVMGWYRQAPRKEREMVAITIGAGRTYYADSVKGRFTISRDNAKNTVYLQMNSLIPEDTAVYYCAADTYSTSGYYYWGQGTQVTVSS	low polyreactivity
QVQLVETGGGLVQAGGSLRLSCAASGRTFARYAMGWYRQAPGTERELVAAISWGGTRTYYADSVKGRFTISRDNAKNTVYLQMNSLKPEDTAVYYCAATYLYRDQPKWGGFAYTYGLWGQGTQVTVSS	high polyreactivity
QVQLVESGGGLVQAGGSLRLSCAASGNTFWFYGMGWYRQAPGKERELVAAITSGGSTDYADSVKGRFTISRDNAKNTVYLLLNSLKPEDTAVYYCAAEPVAYYGSSYGYWGQGTQVTVSS	low polyreactivity
QVQLVESGGGLVQAGGSLRLICAASGRIFDGYAMGWYRQAPGKERELVAAISSDGGSTNYADSVKGRFTISRDNAKNTVYLQMNSLKPEDTAVYYCAESRLGEYLGYDYWGQGTQVTVSS	low polyreactivity
QVQLVESGGGLVQAGGRLRLSCAASGITSDVYAMGWYRQAPGKERELVAAISSAGSTYYADSVKGRFTISRDNAKNTVYLQMNSLKPEDTAVYYCDAAGYPQTYLYYYWGQGTQVTVSS	low polyreactivity
QVQLVESGGGLVQAGGSLRLSCAASGRIFAGYALGWYRQAPGKERELVAAITFRSGTTYYADSVKGRFTISRDNAKNTVYLQMHSLKPEDTAVYYCAARWGPYAFTYVRTYDYWGQGTQVTGSS	low polyreactivity
QVQLVESGGGLVQAGGSLRLSCAASGIIFRYNAMGWYRPAPGKERELVAAITSGGITKYADSVKGRFTISRDNAKNTVYLQMNSLKPEDTAVYYCNAEYGFFRAGSRGEYWGQGTQVTVSS	low polyreactivity
QVQLVESGGGLVQAGGSLRLSCAASGRIFGWYAMGWYRQAPGKERELVAAISSSGVSTNYADSVKGRFTISRDNAKNTVYLQMNSLKPEDTAVYYCIARGFYWYRPYVNSNGGYWGQGTQVTVSS	high polyreactivity
QVQLVESGGGLVQAGGSLRLSCAASGRIFDNYVMGWYRQAPGKERELVAAISSGGGTYYADSVKGRFTISRDNAKNTVYLQMNSLKPEDTAVYYCAKRRVYDRSFGRYDYWGQGTQVTVSS	low polyreactivity
QVQLVESGGGLVQAGGSLRLSCAASGSTFYFNTMGWYRQAPGKERELVAAINSIGGSTYYADSVKGRFTISRDNAKNTVYLQMNSLKPEDTAVYYCAKLKRLYYWSSHTSYGYDYWGQGTQVTVSS	high polyreactivity
QVQLEESGGRLVQAGGSLRLSCAASGRIFNYYAMGWYRQAPGQERELVAAISNGGSTYYADSVKGRFTISRDNAKNTVYLQMNSLKPEDTAVYYGAAYQTYYARTELDYWGQGTLVTVSS	high polyreactivity
QVQLGESGGGLVQSGGSLRLSCAASGRTFCYYAMGWYRQAPGKERELVAAITNRGGNKYYADSVKGRFTISRDNAKNTVYLQMNSLKPEDTAVYYCAAYNRIYGYHTLYYWGQGTQVTVSS	high polyreactivity
QVQLVESGGGLGQAGGSLRLSCAASGFTFYYYAMGWYRQAPGKERELVAAISYSGGSTYYADSVKGRFTISRDNAKNTVYLQMNSLKPEDTARYYCAADLSTYSRGFDYWGQGTQVTVSS	high polyreactivity
QVQLVESGGGLVQAGGSLRLSCAASGLIFWYNAMGWYRQAPGKEREFVAAITSDGGRTYYADSVKGRFTISRDNAKNTVYLQMNSLKPEDTAVYYCTARGYGYLGRKGGYSYGYYYWGQGTQVTVSS	low polyreactivity
QVLLQETGGGLVQAGGSLSLSCAASGTISTDIRMGWYRLAPGKEREFVASIDGCSTTYYADSVKGRFTFSRDNAKNTVYLQMNRLIPEDTSMYYCAAREATEFYLYYWGQGTQVTVSS	low polyreactivity
QVHLVESGVGLDQAGGSLRLSCASTGYIFETYAMGWYRPATGKERELVAAISRGASTYYADSVKGRFTISRDNAQNTVSLQLNSLKQEDTAVYYCAPTRRSWHRYGYWGQGTQVTVSS	low polyreactivity
QVQLVESGGGLVQAGGSLRLSCAASGSTFSVYALGWYRPAPGKERELVAVISSTDDSTYYADSVKGRFTISRDNAKNTVYLQMNSLKPEDTAVYYCAAPDDTTGYDYYYWGQGTQVTVSS	low polyreactivity
QVQLVESGGGIVQAGGSLRLSCAASGRTIPPYGMGWYRQAPGKERELVAAISKSSGSTNYADSVKGRVTISRDNAKNTVYLQMNSLKPEDTAVYYCTKEWSIGPTGIRAYVRVWYYYWGQGTQVTVSS	low polyreactivity

Sequence	polyreactivity (PSR sort gate)
QVQLVESGGGVVQAGGRLGLSCAASGSTFSQNPMGWYRQAPGKERELVASISSGGSTHYADSVKGRFTISRDNAKNTVYLQMNSLKPEDTAVYYCTTDLPNYVPFIVVEAYNYWGQGTQVTVSS	low polyreactivity
QVQLVESGGGLVQAGGSLRLSCAASGGTFKYYDMGWYRQAPGKEREFVAAISKRVSSTYYADSVKGRFTISRDNAKNTVYLQMNSLKPEDTAVYYCAAYPVRYYNQYDYWGQGTQVTVSS	low polyreactivity
QVQLVESGGGLVQAGGSLRLSCAASGFIFRGYAMGWYRQAPGKERELVAAITSSGGDTYYADSVKGRFTISRDNAKNTVYLQMNSLKPEDTAVYYCAKRARRIGDVNMGSWGQGTQVTVSS	low polyreactivity
QVQLVESGGGLVQAGGSLRLSCAASGFIVRSYAMGWYRQAPGKERELVAVISRRGVNTHYADSVKGRFTISRDNAKNTVYFQMNSLKPEDTAVYYCAKGLTALGDYWGQGTQVTVSS	high polyreactivity
QVQLVESGGGLVQAGGSLRLSCAASGRIFETNGMGWYRQAPGKERELVAAITRSGGVRTYADSVKGRFTISRDNAKNTVYLQMNSLKPEDTAVYYCNKRSILGRGTPSPYKRMYHWGQGTQVTVSS	low polyreactivity
QVQLVESGGGLVQEGGSIRLSCDASGFIFDVYAIGWYRTAAGKERELVDAISSVGSTYYADSVKGRFTISRDNATNTVYLQMNSLKPEDTAVYYCADVRFYTYNYWGQGTQVTVSS	low polyreactivity
QVHLVESGGGIVQAGGSLRLSCAASVRTFQYYAMGWYRKAPGKEREFVAAITRTGARTYYADSVKGRFTISRDNAKNTVYLQMNSLKPEDTAVYYCAKSLTFYSWRDYGYWGQGTQVTVSS	high polyreactivity
QVQLVESGGGLVQAGGSLRLSCAASGSIFKTYAMGWSRPAPGKERELVAAITSSGGSTYYADSVKGRFTISRDNAKNTVDLQMNSLKPEDTAVYDCAALSGQARRMYYWGQGTQVTVSS	high polyreactivity
QVQLVESGGGLVQAGGSLRLTCAASASNFVSYPMGWYRPAHGKERELVAAITSAGTTYYAYSVKGRFTISRDNAKNTVYLQMNTLKPEDTAVYYCNTDASFKRTRVSPETEYGYWGQGTQVTVSS	low polyreactivity
QVQLVESGGVLVQAGGILRLSCAESGSIFSYYAMVWYRQAPWKERELVASISWNGTSTYYADSVKGRFTISRDNSKNTVYLQMNSLKPEDTAVYYCNVRFNYRGTYDYWGQGTQVTVSS	low polyreactivity
QDQLEESGGGLVQAGGSLRLSCAASGSTFLVYAMGWYRQAPGKEREFVAAISWSGGSTFYADSVKGRFTISRDNAKNTVYLQMNSLKPEDTAVYYCAARQAGYSGRKLYYWGQGTQVTVSS	low polyreactivity
QVQLVESGGGLVQAGGSLRLTCAASGSIFYYNAMGWYRQAPGKERELVAAISSDGSTYYADSVKGRFTISRDNAKNTVYLQMNSLKPEDTAVYYSAAATLTWSRWGSYYEYDYWGQGTQVTVSS	low polyreactivity
QVQLEESGGGLVQAGGRLRLSCAASGSTCGTNVMGGARQAPGKERELVAAFSNGGSTNYADSVKGRFTISRDNAKITDYLQMNSLKPEDTAVYYCEFDYWGQGTQVTVSS	low polyreactivity
QVQLVESGGGLVQAGGSLRLSCAPSGRTFTAYAMGWYRQAPGKERELVAAITSGGSTYYADSVKGRFTISRDNAKNTVYLKRKSLKPEDTAVYYCATDLYSFYWPEYEYWGQGTQVTLSS	low polyreactivity
QVQLVESGGGLVQAGGSLRLSCAASGRINAMGWYRQAPGKERELVAVITLRGGSTYYADSVKGRFTISRDNAKNTGYLQMNSLKPEDTAVYYCAAETLVSFWFDYWGQGTQVTVSS	low polyreactivity
QVQLVESRGGLVQAAGSLRLSCAASGGTFDINAMGWYRQAHGKEREFVAAISSYDDGTYYADSVKGRFTISRDNAKNTVYLQMNSLKPEDTAVYYCAAEGYYDYLYRHYYWGQGTLVTVSS	low polyreactivity
QVQLVESGGGLVQAGGSLRLSCAASGSIIGDNTMGWYRQAPGKERELVATIRKNGASTTYADSVKGRFTISRDNAKNTVYLQMNSLKPEDTAVYYCARDHHTKYNYWGQGTQVTVSS	low polyreactivity
QVQLVESGGGLVQAGGSLRLSCAASGRIFRYYAMGWYRQAPGKERELVAAIRSDDSTNYADSVKGRFTISRDNAKNTVYLQMNSLKPEDTAVYYCAAVKAYYGGSRSYYYWGQGTQVTVSS	high polyreactivity
QVQLVESGGGLVQAGGSLRLSCAASGSTFFGNTMGRYRQAPGKERELVAAISRRGGSTYYADSVKGRFTISRDNAKNTVYLQMNSLKPEDTAVYYCAKYYHSGGYTPGKYDYWGQGTQVTVSS	high polyreactivity
QVQLEESGGGLVQAGGSLRLSCAASGRTFFPYAMGWYRQAPGKERELVAAISHGGRTYYADSVKGRFTISRDNAKNTVYLQMNSLKPEDTAVYYCNALSARSYYWGQGTQVTVSS	high polyreactivity
QVQLVESGGRLVQAGGSLRLSCAASGSTFIQNAMGWSRQAPGKDRELVAAITSGGGTNYADSVKGRFTISRDNAKNTVYLQMNSLKPEDTAVYYCAAEPFNYDDFWFGWEYLYDYWGQATQVTVSS	low polyreactivity
